One series concerns the target SSTR2 (Homo sapiens, UniProt P30874). The experiment in a line: SSTR binding affinity by radioligand binding competition assay ([125I]-Tyr11-Somatostatin, membrane extracts). To be noted: radioligand competition, [125I]-Tyr11-Somatostatin 0.1 nM, membrane extracts, Ki from IC50 by Cheng Prusoff. A general note: Loss of bound radioactivity is the signal in a displacement assay; it reports binding, not function.

A short description of series [1]: Peptide conjugate biodistribution measured by tissue PK (ICP-MS, % ID/g in kidney tissue at 2 h). Format: in vivo. To be noted: 2 h time point, mouse. As for the experimental part: Macrocyclic peptides and conjugates described herein were tested for tissue distribution by measuring concentrations in tissues by MS using in vivo animal models. Peptide metal chelates were dosed to animals and tissues were collected at specific time points based off the peptide PK profile. The samples were then analyzed by MS and the results reported as % ID/g (% injected dose/gram). Radiopharmaceutical conjugates of the present disclosure have improved tissue distribution for radiopharmaceutical therapeutics.
Peptide metal chelate doses were suspended in phosphate-buffered saline (PBS) containing 0.1% Tween 80. An injection volume of 100 μL per mouse was used, and blood and tissue samples were collected, weighed, and stored frozen at-80° C. until analysis. Tissue samples were digested with concentrated nitric acid in a microwave digestion apparatus. The sample digest was diluted with internal standard and analyzed using inductively coupled plasma mass spectrometry (ICP-MS). ICP-MS is an elemental analysis technique used to measure elements by using argon plasma to convert the sample into ions that are then measured using the mass spectrometer. Calibration standards were used for quantification of element(s) of interest by constructing a multipoint standard curve covering the range of analyte concentrations anticipated in the samples (typical range is 500 ppt to 0.1 ppt). A single quadrupole instrument (iCAP RQ, Thermo Fisher) ICP-MS was coupled with a Teledyne CETAC autosampler and used for the sample analysis.
The % ID/g of conjugate in kidney tissue at the 2-hour time point (2 h) was quantified for various conjugates, and the results are shown in Table 10. Lower kidney tissue % ID/g values indicate lower distribution to the kidney after administration of the conjugate.

In series [2] the target is T1, somatostatin receptor type 2 (SSTR2) (UniProt P30874 1-369, limits assumed).
T1 construct: also called SSTR protein
T1 sequence (P30874 whole entry): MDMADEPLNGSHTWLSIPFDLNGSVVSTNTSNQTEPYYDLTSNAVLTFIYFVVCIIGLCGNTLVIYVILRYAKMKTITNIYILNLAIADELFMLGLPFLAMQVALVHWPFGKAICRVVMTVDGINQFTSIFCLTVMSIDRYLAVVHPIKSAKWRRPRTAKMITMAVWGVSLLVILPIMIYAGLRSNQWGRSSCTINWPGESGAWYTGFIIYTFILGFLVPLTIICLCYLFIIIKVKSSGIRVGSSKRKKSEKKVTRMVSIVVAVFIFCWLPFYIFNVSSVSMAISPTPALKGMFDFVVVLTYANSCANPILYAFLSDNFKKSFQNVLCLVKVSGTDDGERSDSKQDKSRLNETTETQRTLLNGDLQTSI
The experiment in a line: radioligand competition; Ki bin per legend.

Like-named read-outs stand apart in the source and are kept apart here. Numbered stars: 1 amine (or outer) side, 2 acyl side, 3 side chain; on linkers, the order of the positions; unused ones are H or OH. Square brackets hold non-standard residues; d marks the D form. Peptide text beside a SMILES is read from it. * marks the point of attachment. DOTA(Lu)NH(CH2)6NHCOCH2 = O=C(CN1CCN2CCN3CCN(CC1)CC(=O)[O][Lu]([O]C(=O)C2)[O]C(=O)C3)NCCCCCCNC(=O)C*; dTrp(βS-Me) = C[C@@H](c1c[nH]c2ccccc12)[C@@H](N)C(=O)O; Ala(piperazin-1-yl) = N[C@@H](CN1CCNCC1)C(=O)O; X2 = O=C([C@H](CCC1CNC1)N[*:1])[*:2]; Lys(Me2) = CN(C)CCCC[C@H](N)C(=O)O; NMehCys = CN[C@@H](CCS)C(=O)O; NMeK = CN[C@@H](CCCCN)C(=O)O; X1 = C1NCC1* Bounds are passed on as bounds.

Chain of SSTR2 (P30874 whole entry): as above

With `C[C@@H](O)[C@@H]1NC(=O)[C@H](CCCCN(C)C)NC(=O)[C@@H](Cc2c[nH]c3ccccc23)NC(=O)[C@H](Cc2ccc(O)cc2)NC(=O)[C@H](CCSCC(=O)NCCCCCCNC(=O)CN2CCN3CCN4CCN(CC2)CC(=O)[O][Lu]([O]C(=O)C3)[O]C(=O)C4)N(C)C(=O)[C@H](Cc2ccccc2)NC1=O` [RB-0005801] (cyclo(F[NMehCys](DOTA(Lu)NH(CH2)6NHCOCH2)Y[dW][Lys(Me2)]T)), the Ki (usually a dissociation constant, usually derived from enzyme kinetics or from competition with a known ligand) at SSTR2 (read-out: SSTR2 Ki) was 1 to 3.33 nM. For the same molecule, the tissue uptake (commonly the percentage of the injected dose found per gram of tissue) at 2 h in series [1] amounted to 2 %ID/g. For the molecule `C[C@@H](O)[C@@H]1NC(=O)[C@H](CN2CCNCC2)NC(=O)[C@@H](Cc2c[nH]c3ccccc23)NC(=O)[C@H](Cc2ccc(O)cc2)NC(=O)[C@H](CCSCC(=O)NCCCCCCNC(=O)CN2CCN3CCN4CCN(CC2)CC(=O)[O][Lu]([O]C(=O)C3)[O]C(=O)C4)N(C)C(=O)[C@H](Cc2ccccc2)NC1=O` [RB-0005805] (cyclo(F[NMehCys](DOTA(Lu)NH(CH2)6NHCOCH2)Y[dW][Ala(piperazin-1-yl)]T)), the inhibitory constant (Ki) on SSTR2 (SSTR2 Ki) is less than 1 nM. For the same molecule, in series [1], the tissue uptake at 2 h was 2.5 %ID/g.

Regarding `C[C@@H](O)[C@@H]1NC(=O)[C@H](CCC2CNC2)NC(=O)[C@@H](Cc2c[nH]c3ccccc23)NC(=O)[C@H](Cc2ccc(O)cc2)NC(=O)[C@H](CCSCC(=O)NCCCCCCNC(=O)CN2CCN3CCN4CCN(CC2)CC(=O)[O][Lu]([O]C(=O)C3)[O]C(=O)C4)N(C)C(=O)[C@H](Cc2ccccc2)NC1=O` [RB-0005897] (cyclo(F[NMehCys](DOTA(Lu)NH(CH2)6NHCOCH2)Y[dW][X2]T)), the Ki at SSTR2 (read-out: SSTR2 Ki) was less than 1 nM. In addition, the tissue uptake at 2 h in series [1] was found to be 2.5 %ID/g. The like results for `C[C@@H](O)[C@@H]1NC(=O)[C@H](COC2CNC2)NC(=O)[C@@H](Cc2c[nH]c3ccccc23)NC(=O)[C@H](Cc2ccc(O)cc2)NC(=O)[C@H](CCSCC(=O)NCCCCCCNC(=O)CN2CCN3CCN4CCN(CC2)CC(=O)[O][Lu]([O]C(=O)C3)[O]C(=O)C4)N(C)C(=O)[C@H](Cc2ccccc2)NC1=O` [RB-0006013] (cyclo(F[NMehCys](DOTA(Lu)NH(CH2)6NHCOCH2)Y[dW]S(X1)T)) were, in that order, 1 to 3.33 nM and 3 %ID/g. The like results for `C[C@@H](O)[C@@H]1NC(=O)[C@H](CN2CCNCC2)NC(=O)[C@@H]([C@@H](C)c2c[nH]c3ccccc23)NC(=O)[C@H](Cc2ccc(O)cc2)NC(=O)[C@H](CCSCC(=O)NCCCCCCNC(=O)CN2CCN3CCN4CCN(CC2)CC(=O)[O][Lu]([O]C(=O)C3)[O]C(=O)C4)N(C)C(=O)[C@H](Cc2ccccc2)NC1=O` [RB-0006072] (cyclo(F[NMehCys](DOTA(Lu)NH(CH2)6NHCOCH2)Y[dTrp(βS-Me)][Ala(piperazin-1-yl)]T)) were, in that order, less than 1 nM and 2.7 %ID/g.

B1: RB-0006176 (peptide)
peptide: cyclo([NMeK]Y[dTrp(βS-Me)][Ala(piperazin-1-yl)]TF)
modifications: not fully specified (residue 1); printed as cyclo[NMe-Lys(DOTA-Lu),Tyr,(S-βMe)D-Trp,PipzaA,Thr,Phe]; also: Lu chelated in DOTA
B1 yielded a Ki in series [2] of less than 1 nM. Still for that read-out and setting: the same measure for XYWKVF (cyclo[NMe-Hcy(COCH2-Dah-DOTA-Lu);Tyr;D-Trp;Lys;Val;Phe]) [RB-0002676]: less than 1 nM. On the same count and under the same terms, the same measure for XYWKTF (cyclo[NMe-Hcy(COCH2-Dah-DOTA-Lu);Tyr;D-Trp;NMe-Lys;Thr;Phe]) [RB-0003453]: less than 1 nM.

The record behind these values is patent publication US20250222146A1, “Radiopharmaceuticals Targeting Somatostatin Receptor 2 and Uses Thereof” (RayzeBio, Inc., priority 2023, published 2025).
